Test results: PMC5454376, “Molecular mechanism of Gαi activation by non-GPCR proteins with a Gα-Binding and Activating motif” (Nature Communications, 2017)

B1: GIV-CT: His-tagged human GIV residues 1,660–1,870 (protein)
chain: SETLESRHHKIKTGSPGSEVVTLQQFLEESNKLTSVQIKSSSQENLLDEVMKSLSVSSDFLGKDKPVSCGLARSVSGKTPGDFYDRRTTKPEFLRPGPRKTEDTYFISSAGKPTPGTQGKIKLVKESSLSRQSKDSNPYATLPRASSVISTAEGTTRRTSIHDFLTKDSRLPISVDSPPAAADSNTTAASNVDKVQESRNSKSRSREQQSS
modifications: left off: His tag, N-terminal, kept
B2: A2bR: human GPCR A2b receptor expressed in yeast (protein, UniProt P29275 1-332, looked up)
Adenosine receptor A2b: MLLETQDALYVALELVIAALSVAGNVLVCAAVGTANTLQTPTNYFLVSLAAADVAVGLFAIPFAITISLGFCTDFYGCLFLACFVLVLTQSSIFSLLAVAVDRYLAICVPLRYKSLVTGTRARGVIAVLWVLAFGIGLTPFLGWNSKDSATNNCTEPWDGTTNESCCLVKCLFENVVPMSYMVYFNFFGCVLPPLLIMLVIYIKIFLVACRQLQRTELMDHSRTTLQREIHAAKSLAMIVGIFALCWLPVHAVNCVTLFQPAQGKNKPKWAMNMAILLSHANSVVNPIVYAYRNRDFRYTFHKIISRYLLCQADVKSGNGQAGVQPALGVGL

Experiments:
[1] = Circular dichroism and thermal denaturation of GIV-CT; type: physicochemical
Description: Circular dichroism measurements were performed on a Jasco J-810 spectropolarimeter (JASCO, Tokyo, Japan). The circular dichroism spectrum was recorded on a GIV-CT protein sample 8.4 μM in PBS (pH 7.0) with 0.2 mM DTT in a 0.2 cm path length quartz cuvette at 25 °C. The thermal denaturation curve from 5 to 95 °C was recorded on the same protein sample and cuvette by increasing temperature at a rate of 1 °C min^−1 and measuring the change in ellipticity at 222 nm.

[2] = system: Gαi3-GDP; assay: NMR perturbation of Gαi3-GDP backbone amide signals; type: binding, human; details: 30 °C, pH 7.0, TROSY
Description: Full-length human Gαi3 (UNIPROT entry P08754) cloned in a pET24d(+) plasmid (a generous gift from Ichio Shimada, University of Tokyo) was used to purify the protein used in NMR experiments. For this, protein expression was induced in BL21 Rosetta (Life Technologies) cell cultures with 1 mM IPTG for 16 h at 23 °C in a modified M9 minimal medium containing 1 g l^−1 15N-NH4Cl, 2 g l^−1 2H-^13C-glucose and 1 g l^−1 of ^2H-^13C-^15N Celtone base powder in ^2H2O with 30 mg l^−1 kanamycin and 34 mg l^−1 chloramphenicol. The pelleted cells were lysed by sonication in 50 mM Tris, 200 mM NaCl, 100 mM KCl and 1 mM DTT at pH 8.0, and the supernatant was loaded on a Ni^2+-loaded His-Trap FF column. […]
All NMR data were measured on a Bruker Avance III 800 MHz (18.8 T) spectrometer equipped with a cryogenically cooled triple resonance z-gradient probe, processed with Topspin (Bruker) and analysed with Sparky. […] Gαi3 spectra were recorded at 30 °C on ^2H-^13C-^15N–Gαi3 samples with a threefold molar excess of GDP in 10 mM HEPES (pH 7.0) with 10 mM MgCl2, 5 mm DTT, 0.01% NaN3 and 5% ^2H2O. […] The assignment of Gαi3 resonances in the presence of a fivefold molar excess of GIV fragment 1,671–1,696 was achieved from the joint analysis of an HNCO and ^1H–^15N TROSY spectra recorded along a titration (at molar ratios 1:0, 1:0.2,1:0.5, 1:1, 1:2 and 1:5). […]

[3] = system: Gpa1(1–41)-human Gαi3 (36–354) in S. cerevisiae; assay: G-protein activation in yeast (Fus3 phosphorylation); type: cell-based; details: strain MMY11, ppFus3 immunoblot
Source text: G-protein activation assay in yeast
The native G-protein-dependent pheromone response pathway is similarly modified in both strains: the pheromone-activated GPCR (Ste2 or Ste3), endogenous Gα-subunit (Gpa1) and the cell cycle arrest-inducing protein far1 are deleted. In MMY11, the G-protein inhibitor Sst2 is also deleted. Both strains were transformed with a centromeric plasmid (CEN TRP) encoding a chimeric yeast Gpa1(1–41)-human Gαi3 (36–354) protein under the control of the endogenous Gpa1 promoter[68] (courtesy of Mary Cismowski, Nationwide Children's Hospital) using the lithium acetate method. […] Individual colonies were inoculated into 3 ml of SDGalactose-Trp-Ura and incubated overnight at 30 °C to induce the expression of the proteins of interest under the control of the galactose-inducible promoter of pYES2. This starting culture was used to inoculate 20 ml of SDGalactose-Trp-Ura at 0.3 OD600. Exponentially growing cells (∼0.7–0.8 OD600, 4–5 h) were pelleted to prepare samples for immunoblotting (see below). […]
Yeast protein samples for immunoblotting were prepared by acid lysis and precipitation followed by neutralization and solubilization. […] Proteins (∼15–20 μl per lane) were separated by SDS–PAGE, blocked in PBS supplemented with 5% BSA and analysed by sequential incubation with primary and secondary antibodies. […]

Row | Molecule | thermal denaturation ([1]; 5 to 95 °C, 1 °C min^−1, ellipticity at 222 nm, PBS pH 7.0) | secondary structure by circular dichroism ([1]; […] in PBS pH 7.0, 0.2 mM DTT, 25 °C) | fraction of assigned peaks with significant chemical shift perturbations [2] [%] | overall decrease in signal intensity (median) ([2]; twofold molar excess GIV-CT) [fold] | activation of Gαi3 WT and Gαi3 N256E [3] | activation of Gαi3 ΔC9 [3]
1 | B1 | no cooperative transition | little, if any, secondary structure | < 20 | ~3 | – | –
2 | B2 | – | – | – | – | equally | completely blunted
